Assay results published in US11202837B2, “Biological materials and uses thereof” (Antikor Biopharma Limited, priority 2014, dated 2021).
Like-named read-outs stand apart in the source and are kept apart here. Where a SMILES comes first, the peptide text is derived from it. [ ]: non-standard residue; d: D form. The star is where a group is joined. Dolaproine = CO[C@@H]([C@@H]1CCCN1)[C@@H](C)C(=O)O; Dil = CC[C@H](C)[C@H](NC)[C@@H](CC(=O)O)OC; NMe2Val = CC(C)[C@@H](C(=O)*)N(C)C

What was measured:
BT474 cells = assay: Cell killing assay (MTS), BT474 cells; type: cell-based, human
Protocol: (§1) The cells were recovered by centrifugation (2 min, 2000 rpm), the supernatant was discarded, and the cells were resuspended in complete McCoy's 5A (5 ml). The cells were then counted using a haemocytometer and diluted accordingly. They were plated at 5000 cells/well (200 μl) using attachment factor and incubated overnight at 37° C., 5% CO2 in a humidified atmosphere. U87 is a non-HER2 expressing glioblastoma cell line [Zitron I M et al (2013) BMC Cancer 13:83] and was grown in a similar way, plated at 1000 cells/well (using DMEM media). BT474 is a HER2 expressing breast cancer cell line [Brockhoff G et al (2007) Cell Prolif 40:488-507] and was grown in a similar way, plated at 7500 cells/well (using RPMI media). NCI-N87 is a HER2 expressing gastric cancer cell line [Yamashita-Kashima Y et al (2013) Oncol. Rep 30:1087-93] and was grown in a similar way, plated at 7500 cells/well (using RPMI media).
(§2) The cells were exposed to the various ADCs diluted in complete media for 96 hours at 37° C., 5% CO2 in a humidified atmosphere. Cell viability was measured using the Promega Aqueous Cell-titre-96™ aqueous one solution cell proliferation kit (MTS reagent) according to manufacturer's instructions. Briefly, the media was removed and 100 μl of complete phenol red free media, pre-combined with MTS reagent, was added to the cells (20 μl of reagent per 100 μl of media). The plates were read on an ELISA plate reader at 490 nm after a 2 hr incubation in the dark (5% CO2, 37° C.).
The data (absorption units) were converted to % cell survival by using the untreated controls as the 100% cell survival and the Triton X-100 controls as the 100% cell death. The average absorption value for the latter was subtracted from all the rest of the data in order to get a suitable baseline. The averages were converted to survival and standard error values were obtained for each n value (as a % cell survival). […] Experiments were repeated at least 3 times for each compound tested and a set or an average of the data was plotted and fitted to obtain a dose-response curve.

SKBr3 cells = assay: Cell killing assay (MTS), SKBr3 cells; type: cell-based, human
Protocol: (§3) SKBr3, human breast cancer cell line, high HER2 expression levels, up to 1,000,000 receptors per cell [Lazar G A, et al Proc Natl Acad Sci USA. […] When confluency was 70-80%, cells were washed with PBS (2×10 ml) and incubated with trypsin for 5-7 min. Complete media was added and the cells were resuspended by pipetting. The cells were recovered by centrifugation (2 min, 2000 rpm), the supernatant was discarded, and the cells were resuspended in complete DMEM (5 ml). The cells were then counted using a haemocytometer and diluted accordingly. They were plated at 4500 cells/well (200 μl) using attachment factor and incubated overnight at 37° C., 5% CO2 in a humidified atmosphere. U87 is a non-HER2 expressing glioblastoma cell line and was grown in a similar way, plated at 1000 cells/well.
[…] Cell viability was measured using the Promega Aqueous Cell-titre-96™ aqueous one solution cell proliferation kit according to manufacturer's instructions. Briefly, the media was removed and 100 μl of complete phenol red free media, pre-combined with MTS reagent, was added to the cells (20 μl of reagent per 100 μl of media). The plates were read on an ELISA plate reader at 490 nm after a 2 hr incubation in the dark (5% CO2, 37° C.).
(§4) The data (absorption units) were converted to % cell survival by using the untreated controls as the 100% cell survival and the Triton X-100 controls as the 100% cell death. The average absorption value for the latter was subtracted from all the rest of the data in order to get a suitable baseline. The averages were converted to survival and standard error values were obtained for each n value (as a % cell survival). […] Experiments were repeated at least 3 times for each compound tested and a set or an average of the data was plotted and fitted to obtain a dose response curve.
as §1
[…] Cell viability was measured using the Promega Aqueous Cell-titre-96™ aqueous one solution cell proliferation kit (MTS reagent) according to manufacturer's instructions. Briefly, the media was removed and 100 μl of complete phenol red free media, pre-combined with MTS reagent, was added to the cells (20 μl of reagent per 100 μl of media). The plates were read on an ELISA plate reader at 490 nm after a 2 hr incubation in the dark (5% CO2, 37° C.).
(§5) The data (absorption units) were converted to % cell survival by using the untreated controls as the 100% cell survival and the Triton X-100 controls as the 100% cell death. The average absorption value for the latter was subtracted from all the rest of the data in order to get a suitable baseline. The averages were converted to survival and standard error values were obtained for each n value (as a % cell survival).

U87 cells = assay: Cell killing assay (MTS), U87 cells; type: cell-based
Protocol: as §3
The cells were exposed to the various ADCs diluted in complete media for 96 hours at 37° C., 5% CO2 in a humidified atmosphere. Cell viability was measured using the Promega Aqueous Cell-titre-96™ aqueous one solution cell proliferation kit according to manufacturer's instructions. Briefly, the media was removed and 100 μl of complete phenol red free media, pre-combined with MTS reagent, was added to the cells (20 μl of reagent per 100 μl of media). The plates were read on an ELISA plate reader at 490 nm after a 2 hr incubation in the dark (5% CO2, 37° C.).
as §4, §1, §2, §5

HER2 = HER2 (Homo sapiens, UniProt P04626); assay: Biacore SPR binding to immobilised HER2; details: immobilised HER2
Protocol: The binding affinity against immobilised HER2 target antigen was determined by Biacore SPR compared to the unmodified scFv on a Biacore T200. A standard amine-coupling method was used to prepare all Biacore surfaces (CM5 or CM3), as follows. Flow cells were activated individually by injecting a freshly mixed solution of 0.2M EDC in 0.05 M NHS at 30 μl/min. […] Excess NHS ester was deactivated using a 1 M ethanolamine solution. To measure the kinetics of the antibody and conjugate on the HER2 chip, a […] serial dilution (typically at 5, 2.5, 1.25, 0.6 μg/ml or lower for free antibody and 20, 10, 5, 2.5 μg/ml for the conjugates), was injected for 160 s at 30 μl/min, allowing a 900-s dissociation phase. The dissociation time was extended to 3600 s for the highest concentration. Surfaces were regenerated with 45 s injection of MgCl2 8M.
To evaluate binding ability, manual runs were performed at 30 μl/min with a 60 s injection of the desired compound followed by 60 s waiting time and a 45 s of regeneration at 10 μl/min using MgCl2 8M. All data was analysed using the software, BIAEvaluation.

[1] = Aggregation by HPLC size-exclusion chromatography; type: physicochemical; details: purified or analysed conjugate vs unconjugated antibody
Protocol: Aggregation can be tested by analytical size-exclusion HPLC measuring the percentage of high molecular weight material compared to the conjugate eluting at a retention time characteristic of a monomeric conjugate.
Typically, 20 μg of protein was injected for analytical runs and 300 μg for semi-preparative runs.

[2] = BT474 Cells (HER2++), 96 hours, Table 46
[3] = BT474 Cells (HER2++), 96 hours, Table 46, read-out: IC50
[4] = SKBr3 Cells (HER2+++), 96 hours, Table 46
[5] = SKBr3 Cells (HER2+++), 96 hours, Table 46, read-out: IC50
[6] = U87 Cells (HER2−), 96 hours, Table 46
[7] = SKBr3 Cells (HER2 +++), 96 hours, Table 50
[8] = U87 Cells (HER2−), 96 hours, Table 50
[9] = U87 Cells (HER2−), 96 hours, Table 50, read-out: IC50

Molecule: CC[C@H](C)[C@@H]([C@@H](CC(=O)N1CCC[C@H]1[C@H](OC)[C@@H](C)C(=O)N[C@@H](Cc1ccccc1)C(=O)O)OC)N(C)C(=O)[C@@H](NC(=O)[C@H](C(C)C)N(C)C)C(C)C [Free drug Auristatin F] (NMe2Val-V[Dil][Dolaproine]F-OH)
- IC50 (BT474 cells; Homo sapiens, BT-474, 96 h, read-out: IC50 pM): > 2500 pM
- IC50 (SKBr3 cells; Homo sapiens, SK-BR-3, 96 h, read-out: IC50 pM): > 5500 pM
- IC50 (U87 cells; Homo sapiens, U-87 MG, 96 h, read-out: IC50 pM): > 12500 pM

B1: scFv (TCT1067)-Acetate DAR 16 (conjugate)
scFv: SGSGGSGQVQLVQSGAEVKKPGESLKISCKGSGYSFTSYWIAWVRQMPGKGLEYMGLIYPGDSDTKYSPSFQGQVTISVDKSVSTAYLQWSSLKPSDSAVYFCARHDVGYCTDRTCAAWPEWLGVWGQGTLVTVSSGGGGSGGGGSGGGGSQSVLTQPPSVSAAPGQKVTISCSGSSSNIGNNYVSWYQQLPGTAPKLLIYGHTNRPAGVPDRFSGSKSGTSASLAISGFRSEDEADYYCASWDYTLSGWVFGGGTKLTVLMASMTGGQQMG
- association rate (HER2): 3.63e+06 M⁻¹ s⁻¹
- dissociation rate (HER2): 7.64e-05 s⁻¹
- aggregation by HPLC-SEC (in words) [1]: no aggregation

B2: scFv (TCT1067)-MMAF-C5, DAR 6.4 (conjugate)
scFv: SGSGGSGQVQLVQSGAEVKKPGESLKISCKGSGYSFTSYWIAWVRQMPGKGLEYMGLIYPGDSDTKYSPSFQGQVTISVDKSVSTAYLQWSSLKPSDSAVYFCARHDVGYCTDRTCAAWPEWLGVWGQGTLVTVSSGGGGSGGGGSGGGGSQSVLTQPPSVSAAPGQKVTISCSGSSSNIGNNYVSWYQQLPGTAPKLLIYGHTNRPAGVPDRFSGSKSGTSASLAISGFRSEDEADYYCASWDYTLSGWVFGGGTKLTVLMASMTGGQQMG
- IC50 μg/ml (BT474 cells; [2]): 0.008 µg/mL
- IC50 (BT474 cells; [3]): 286 pM
- IC50 μg/ml (SKBr3 cells; [4]): 0.007 µg/mL
- IC50 (SKBr3 cells; [5]): 250 pM
- IC50 μg/ml (U87 cells; [6]): >5 µg/mL

B3: scFv (TCT1067)-DM1 DAR 3.5 (conjugate)
scFv: SGSGGSGQVQLVQSGAEVKKPGESLKISCKGSGYSFTSYWIAWVRQMPGKGLEYMGLIYPGDSDTKYSPSFQGQVTISVDKSVSTAYLQWSSLKPSDSAVYFCARHDVGYCTDRTCAAWPEWLGVWGQGTLVTVSSGGGGSGGGGSGGGGSQSVLTQPPSVSAAPGQKVTISCSGSSSNIGNNYVSWYQQLPGTAPKLLIYGHTNRPAGVPDRFSGSKSGTSASLAISGFRSEDEADYYCASWDYTLSGWVFGGGTKLTVLMASMTGGQQMG
- IC50 μg/ml (SKBr3 cells; [7]): 0.0417 µg/mL
- IC50 (SKBr3 cells; SKBr3 Cells (HER2 +++), 96 hours, Table 50, read-out: IC50): 1490 pM
- IC50 μg/ml (U87 cells; [8]): 0.641 µg/mL
- IC50 (U87 cells; [9]): 22900 pM

B4: scFv (TCT1067)-DM1 DAR 5.5 (conjugate)
scFv: SGSGGSGQVQLVQSGAEVKKPGESLKISCKGSGYSFTSYWIAWVRQMPGKGLEYMGLIYPGDSDTKYSPSFQGQVTISVDKSVSTAYLQWSSLKPSDSAVYFCARHDVGYCTDRTCAAWPEWLGVWGQGTLVTVSSGGGGSGGGGSGGGGSQSVLTQPPSVSAAPGQKVTISCSGSSSNIGNNYVSWYQQLPGTAPKLLIYGHTNRPAGVPDRFSGSKSGTSASLAISGFRSEDEADYYCASWDYTLSGWVFGGGTKLTVLMASMTGGQQMG
- IC50 μg/ml (SKBr3 cells; [7]): 0.0078 µg/mL
- IC50 μg/ml (U87 cells; [8]): 0.419 µg/mL
- IC50 (U87 cells; [9]): 14900 pM

B5: scFv (TCT)-P5C5, DAR = 12 (conjugate)
scFv: SGSGGSGQVQLVQSGAEVKKPGESLKISCKGSGYSFTSYWIAWVRQMPGKGLEYMGLIYPGDSDTKYSPSFQGQVTISVDKSVSTAYLQWSSLKPSDSAVYFCARHDVGYCSSSNCAAWPEYFQHWGQGTLVTVSSGGGGSGGGGSGGGGSQSVLTQPPSVSAAPGQKVTISCSGSSSNIGNNYVSWYQQLPGTAPKLLIYGHTNRPAGVPDRFSGSKSGTSASLAISGFRSEDEADYYCAAWDDSLSGWVFGGGTKLTVLMASMTGGQQMG
- IC50 μg/ml SKBr3 Cells (HER2+++) (SKBr3 cells; 96 hours exposure): 5.01 ± 1.9 µg/mL
- IC50 (SKBr3 cells; 96 hours exposure, read-out: IC50 nM SKBr3 Cells (HER2+++)): 179000 ± 68000 pM
- IC50 μg/ml U87 Cells (HER2−) (U87 cells; 96 hours exposure): 100 µg/mL
- IC50 (U87 cells; 96 hours exposure, read-out: IC50 nM U87 Cells (HER2−)): 3.57e+06 pM

B6: scFv (TCT)-MMAF-C5, DAR 6.6 (conjugate)
scFv: SGSGGSGQVQLVQSGAEVKKPGESLKISCKGSGYSFTSYWIAWVRQMPGKGLEYMGLIYPGDSDTKYSPSFQGQVTISVDKSVSTAYLQWSSLKPSDSAVYFCARHDVGYCSSSNCAAWPEYFQHWGQGTLVTVSSGGGGSGGGGSGGGGSQSVLTQPPSVSAAPGQKVTISCSGSSSNIGNNYVSWYQQLPGTAPKLLIYGHTNRPAGVPDRFSGSKSGTSASLAISGFRSEDEADYYCAAWDDSLSGWVFGGGTKLTVLMASMTGGQQMG
- IC50 μg/ml (BT474 cells; [2]): 0.2 µg/mL
- IC50 (BT474 cells; [3]): 7.14 pM
- IC50 μg/ml (SKBr3 cells; [4]): 0.087 µg/mL
- IC50 (SKBr3 cells; [5]): 3.1 pM
- IC50 μg/ml (U87 cells; [6]): >5 µg/mL
